Assays:
[1] = test system: RNase; assay: Ct value depending on temperature of first heating step (Experimental Example 3); assay type: biochemical; conditions: RNase inhibitor 30 U/rxn, incubation 5 minutes
[2] = test system: RNase; assay: Ct value depending on concentration of RNase inhibitor in first heating step (Experimental Example 2); assay type: biochemical; conditions: first heating 37° C. 5 minutes

B1: RNase inhibitor: RNase inhibitor (Nanohelix RNase Inhibitor) derived from murine lung (protein, UniProt Q91VI7 1-456, looked up)
Ribonuclease inhibitor: MSLDIQCEQLSDARWTELLPLIQQYEVVRLDDCGLTEVRCKDISSAVQANPALTELSLRTNELGDGGVGLVLQGLQNPTCKIQKLSLQNCGLTEAGCGILPGMLRSLSTLRELHLNDNPMGDAGLKLLCEGLQDPQCRLEKLQLEYCNLTATSCEPLASVLRVKADFKELVLSNNDLHEPGVRILCQGLKDSACQLESLKLENCGITAANCKDLCDVVASKASLQELDLSSNKLGNAGIAALCPGLLLPSCKLRTLWLWECDITAEGCKDLCRVLRAKQSLKELSLASNELKDEGARLLCESLLEPGCQLESLWIKTCSLTAASCPYFCSVLTKSRSLLELQMSSNPLGDEGVQELCKALSQPDTVLRELWLGDCDVTNSGCSSLANVLLANRSLRELDLSNNCMGGPGVLQLLESLKQPSCTLQQLVLYDIYWTNEVEEQLRALEEERPSLRIIS
**Q.** What does the source list for B1?
**A.** Ct value at first heating temperature of 25° C. to 37° C. [1]: constant; Ct value at first heating temperature of 45° C. or higher [1]: increased; Ct value as the concentration of the RNase inhibitor increased ([2]; 7.5 U/rxn to 45 U/rxn): gradually decreased; Ct value at 52.5 U/rxn ([2]; 52.5 U/rxn): lower than that at a concentration of 7.5 U/rxn
